From the domain aggregation screens of Martell et al. (2025) come the findings set out here.

A value given as a limit tells only on which side of the number the result lay.

The nature of the data set: soluble fraction after stress (log2 fold change); higher = more stays soluble; pooled small domains, quantitative proteomics. Particulars: stress: pH 4. In a few lines: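 Aggregation propensity here comes from the fold change in the soluble amount of each small protein domain after acid stress, measured in pooled custom libraries by high-throughput quantitative proteomics. The acid stress was pH 4. On the log2 scale, higher values mean more of the domain stayed soluble.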
With “HMENTVVMPNLLGKTMTEAKIELKDLSISITLKGSENSSQYAAGQIISQSVDSGTRVAVGSSVEVTIAGS”, the “soluble fraction (log2)” value was -0.0377. As for “HMENVIYGINGPVVTVRNSRSFSMMEMVFVGNERLVGEVIGITDKITTIQVYEETTGLRPGEPVYGTGSPM”, the “soluble fraction (log2)” value was -0.842. As for “HMENVRKTEWVTISNDKSQTRTTVYFESGNQKLDKHPQIQGFEYQRTYVEGGVKYYLFVEKGTKLDE”, the “soluble fraction (log2)” value was 0.0865. As to “HMENYGEAITYIHGMIEDSSEKMLAASKALKVNANTLIKFMKDPYSVAAHIRDRIVENLANLEKAVKAI”, the “soluble fraction (log2)” value was -0.59.

Take “HMENYYMPVVAGQSEQDAKSMLNAMKLSLSIQVQEQESDSVAKGLAIGTSPAAGSQIRKGSSVILYISKGA”: the “soluble fraction (log2)” value turned out to be 0.16. Consider “HMEPALYRLFMAHPELNASAVARRLGIAQSLLAQYISGSKKPSPERERMILTEIHKIGEELATAS”, for which the “soluble fraction (log2)” value is 0.102. The result for “HMEPAPPPAAPPADPELQKRIDKLVEYIGKNGPEFEAVIRDKQHDNPDYAFVFGGEGHAYYRYLLWLLPRP” reads -0.287; that for “HMEPELLTTKQVASVMNIGEERARAILLSRGVQPVSLPWGKERKTLRWSRRAVMTVIDTLHAEAQAKAGV”, 0.18; that for “HMEPLPDIPRGTRVSHQTAPADGDMPERRETGWTMTEPIRAQDGLAYVGVSVYGRGVVMLPVNSLSII”, -0.557.

In the case of “HMEPSAQEIANKLLGHVKSLGLPITGLSISYNSTSDLATVRGQVQSQADREKIILAVGNVDHVAKVDDQLT”, the “soluble fraction (log2)” value is -0.0387.

Take “HMEPSQEFSLADMVAYDLTGYPKSAALRAAVGASLGIGYGNAKQFVYRLNHYGISKDDFHRAAQEALDGL”: the “soluble fraction (log2)” value amounted to 0.057. With “HMEPTAEQLKAIRQFASVNGRSWKSELRYLWETGAYHRAALGGADPGYLQQVRNQFGPGWLRAFKISK”, the “soluble fraction (log2)” value was -0.113. As to “HMEPTPREIVVQQLGYRGLEVLGNAEYQFPKETQIIILKLAELISSGSVTETLEGGKLLALFRGVGINVR”, the “soluble fraction (log2)” value is -1.36. Turning to “HMEPVQPVMYSEFIESVERGEVVEATIQGDKIIATDRSGNRYTVVGSAKDPQLVGQLLERNVAFKFVEE”, the “soluble fraction (log2)” value was -0.971.

Take “HMEQAMIVILKENPDRRQLEFLTGWLQKQQIGIHISEGAHQTVLGLVGDATRLDIDMLKQMEIVEDVKRVQ”: the “soluble fraction (log2)” value was -0.953. The result for “HMEQGDTQQEIREKILNLLADGERHMITELKNIRTDQPIDDDKIVGKTLKTLLDEEEVYMDGSYIQLNG” reads -0.997. As for “HMEQIGSIIKDIRKKNNLTQNEFASILGVTFQAVSKWENDKSIPDITILKDISNKFNVDLNYLISG”, the “soluble fraction (log2)” value is -0.48.

“HMEQISVPIFTNDELVTFARSYSGELGYKIDDMAVLALYNRISNIQRLDQATTLTEVKDIVDEAVAKSE”: the “soluble fraction (log2)” value was -0.63. On to “HMEQLESAVASRTLIGQAQGVIMERYGLSAPNAFSVLSRISQDSNTKLAEVAQQIVATRRIPG”, for which the “soluble fraction (log2)” value is 0.0508. With “HMEQLNKNIKFDNFLESLNFINKVSEVAEEENHHPDLKFGWGYADITIFTHAIKGLSEGDFVLAAKIDVI”, the “soluble fraction (log2)” value was -0.295.

For “HMEQMSLISKKKGERIDKFLGENLGDLSRSYIQKLLKDGLILVNGKKVKANYKLNEGDQIDVEVPDP”, the “soluble fraction (log2)” value amounted to 0.407. Turning to “HMEQMSPYPNPSKGKIQFHNQEPMDIKVFNSLGQIVFEQRILSRAILDLSRLSPGQYIVQAGEQKNIWIK”, the “soluble fraction (log2)” value was -0.293.

Consider “HMEQPPVPSVSITAALGSAVARRLAPHGFQKMPDLVDAYRAGKLAQISGIGGTTLDLIREWLTANARQQ”, for which the “soluble fraction (log2)” value was -0.189.

For “HMEQQEFIVPHDSEGQRLDLFLVSVLGTHSRSQIRKLIVNGHVKLENRAPRPNLPVRAGESVVVSMPEPT”, the “soluble fraction (log2)” value is -0.315. The result for “HMEQQSIYLENRERMTINQVIDVDAFDEETLWANLKEGAVEISGSGLHIEKLDLAEGVLIVSGIIRAFAYV” reads -0.423. On to “HMEQQVDYTQFIQDVRQGQIREVDVDRNGVINGIKRSGENFVTVIPGGYDRDLINDLVKQGVNATGEL”, for which the “soluble fraction (log2)” value was determined as 0.14.

Consider “HMEQVKFFDAKVITTPPNRLKTRYTPAGNLRPEADWLQSGAIVPVYETSGAGWYRIGYQTWASAEWMQRLD”, for which the “soluble fraction (log2)” value is 0.166. Consider “HMEQVSDPALLERYAKEVVAASPKAVADYQAGNAKAFQALVGQMMKRTKGKGDPALIREILQKL”, for which the “soluble fraction (log2)” value was determined as 0.143.

Consider “HMEQVTMSNFLDKWGTSTKSPNAWYTSLSPMQKAEAKLLKEESGLTWNKWYEKNIYVGDGTN”, for which the “soluble fraction (log2)” value was -0.264. The result for “HMERAYGVRVSLRLDDPFRTLLGADWSRTHWFASAEERDAALLEMSRKHEFSRPGDQPALVYEKVQN” reads -0.471; that for “HMERDVNQLTPRERDILKLIAQGLPNKMIARRLDITESTVKVHVKHMLKKMKLKSRVEAAVWVHQERI”, 0.0307. The result for “HMEREQNILQGREVVERELRRLGLAEAYTVSDIAKALKFDDEEQFLAKVGFGDIQSRQISGAIALMEKN” reads -0.553; that for “HMERFLENAIPVLGETGLDIKSATEDFENALIRQALHLSGGNKNRAATLLGLKRTTFVEMLKRKSL”, -0.398. “HMERFMEFVITDTQQGQRLDVVLTETTEHLGSRSHMQRSIRAGLVSIDGITTTRASTKVSSGQIIRVEPT”: the “soluble fraction (log2)” value was -0.629.

For “HMERGEFQKLGRATLEQTLARAGKTLAEVSLKAMLETFAFAAEEDLYEALGRGRVSAAKVGETLFPALKGR”, the “soluble fraction (log2)” value is -0.942. For “HMERKMKNNISDQTTYDTDKILNFNGKGYLNGLVIPNNYQIKEEGYYVFRQVALDGREQILYFTIQDLS”, the “soluble fraction (log2)” value was -1.56. Regarding “HMERLSVSMGDMVVFVRDAVEAFRGLVKEKGITLTFESKVEHFYMNYDHDKVYKVVNNLLSNAVKFT”, the “soluble fraction (log2)” value is -1.31. The result for “HMERLTVVPELLKRSLSEAQPLVTSARLRLEVSGGAPEDTSRAIVVGQKPPPGTRVQVGTTVIVTVQIQRP” reads -0.403. The result for “HMERPYNGKQMEYHEGGVEKKETLFVEGGLSRVIQWDESGQKRSEVNISPTGVRREQYWDSSGKAIAKPS” reads 0.0672; that for “HMERQAEAWTNRASALISLGRDEEALEAADRAIELDPRLSKAWIDRSTALSNLGRNDEANEAIQMAMFL”, -0.962. For “HMERQILFTKEDLIEFGLSGGTDSRKRRDVLGHILGIGYSNSKQFLNRLNNFGVTREEFLSAIERIG”, the “soluble fraction (log2)” value was -0.454.

“HMERTVEVVDINDVFSQFLRLYSRERAAGLLSVFKRVEHGLSWQGNPVLLERILSNVFENAIKYAA”: the “soluble fraction (log2)” value is -0.424. The result for “HMERVIYLLNGREVPAAEIRAAEPEALTVDRFYSSENLPAEYRDRNPELVVAFTAEEPLRHY” reads -0.559. For the sequence “HMERVNILEKATKDIPNVEVKAFEGLSVNFARENHAQVIVRGLRAVTDFEYELQMAQTNRVLAPDVDTVF”, the “soluble fraction (log2)” value amounted to 0.317.

For the sequence “HMERYSVQVGSFRNMRYAERLKQELQGEDFPAYIEKSGEFNRVRVGKGLTLEEATQLEQVLRKSGYQTVIV”, the “soluble fraction (log2)” value amounted to 0.0226. The result for “HMESIGANIRRLRKERNMSQDELARKAFTNRSNINRYESGKMVPSADTTEKIEEALGVPAGTLAQ” reads -0.638; that for “HMESKDIRYVQLQTVSPEEVLQALALIMPRSDVYVEPTGKLVVLHGSKETLDRAEELILALDNAV”, -0.641; that for “HMESKITTAEAAAILNASPQFVRVAMQRGILNIGIAMQMPNSNKWTYNISPKLLGEYSGKNIEYELERLR”, -0.692.

For the sequence “HMESRTQVYDFYKDLFREKRRPLRAEEMLSALKSQRGIVGVNQYQIIEQHGIVRLSGSGRSALYWDTDLGS”, the “soluble fraction (log2)” value was -0.746.

Consider “HMESSREVSFSEFMKQIDSGRVSSVKLDGETIYVRNSDGTSYKVIQPLGTDLIGVLRKSDIDVQAIKQ”, for which the “soluble fraction (log2)” value was found to be 0.165. With “HMESYNIVEQVLTKKILSKGNTLAKLSNEFDGLVMLVIRGDEFIIPNGETLLFEKDILVINNGP”, the “soluble fraction (log2)” value is -1.2. In the case of “HMESYTGLAVTEDDDGWSNVRSGNSTSYSILFKIYAGEKFNILSNDGKWSYIDFNGRKGYIHNSIIRKY”, the “soluble fraction (log2)” value was determined as 0.31. Regarding “HMETAADLLAAAKENPARFGILASEGRFGLGYMNDDLLDPDNLVAISREEADDLRGLGVYFHNLD”, the “soluble fraction (log2)” value is -0.308. The result for “HMETALYVEDLDRAVRFYESVMGLNTMSRGVRLVALDAGEGTVLLLFLRGATTSGASFEGGWIPPH” reads -0.257; that for “HMETDNEKVRTAFQNGLAAYREQDWDRAEAAFGAVLAEMPEDRPSLVYLERIAHLRKKAPPGAWDGVWI”, -1.07; that for “HMETENLSPREREILEYIVKGYSYKMIAADLNIATETVRSHIKKIYKKLQVNSATEAVYKYSN”, -0.424. Regarding “HMETEQVEMIRVVGMHVDEAKKALLDLGLSPEIKYEESSSYDAGTVLRASVQDGLMIDKGTNIVLTVAEA”, the “soluble fraction (log2)” value is -0.549. The result for “HMETFEKIKELAKKRGKALGQVEEDLGYGRNTLYKIKNSTPNAERIAEIANYFNVSTDYLLGRTDNPTIAK” reads 0.104. Turning to “HMETFNMTQKEITRLRVINQAIDKVITIREAAELLGLSERQVIRLKGGVEKFGPAFIIHKNRGRKP”, the “soluble fraction (log2)” value was -0.265. On to “HMETGLSNYEFKRIREQAEALLSDGQVRRINDLVDSIKNENAEKVIRVIRFLIDTEELILEDDRVSAKKS”, for which the “soluble fraction (log2)” value was -1.42. The result for “HMETIVGIDPDSKKKIVLKKGIKGRPDYLSFNKKNYSLPSELKEKNVSLEQALEIINDKKSNKKKIK” reads 0.201; that for “HMETLSKVGSTGSEVRQIQTKLKNWGYFSDKVDGIYGEKTRAAVVWFQKKNGLTADGIAGPATLKAMGIYT”, ≥ 0.43; that for “HMETLSVRERMTSIISLLNKHEDIEFSKLFNISEGRLGVVVTFLALLELVKESLVDVIQNQPMSKLYIGKK”, -0.376.

“HMETLTPQEHKVLLLAVKGRTNGEIASELGIAQNTVKNHLAHIYAKMGVGNRTELASEYLRRIH”: the “soluble fraction (log2)” value is 0.0578. On to “HMETTEELISKTVPISYADMAALTGILDGVKSARGDIQVDDRTSTIIIHDIQSSIDEMMRLIKILD”, for which the “soluble fraction (log2)” value is -1.13. The result for “HMETTMVEIKAEFTIRNRLDIPAMMEKAGYKDRGEFLSVLEKITGNYNWDRDVKKGDTFMVPSKLA” reads -0.335. “HMETVPMIDLRGMTQEQAEKAIVGLGLTVGTVDHSSSDMPAGQVWFQSVEPKDEVAPGTKVNIIISTGS”: the “soluble fraction (log2)” value was -0.128.

For the sequence “HMETYNLDVGDSAVLQYQNVSRISVGNPDVLDAIPLDKSQILLTGKATGGAALIVWDSKGMHMEKVMVHPA”, the “soluble fraction (log2)” value is -0.152.
